# The nanobody polyreactivity screen of Harvey et al. (2022)
# Experiment: yeast display, Sf9 membrane polyspecificity reagent, FACS + sequencing; frameworks hold sequencing errors
# How it was run: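 Galactose-induced (36–48 hours) yeast carrying a synthetic nanobody display library were exposed to 10% biotinylated, detergent-solubilized Sf9 membrane reagent at 4 °C for 1 hour. FACS followed streptavidin microbead enrichment, using low and high (top ~1%) gates for expression (anti-HA) and reagent binding (streptavidin). Colony PCR, MiSeq 2 × 250 sequencing and CDR-length filtering followed. Labels for polyreactivity reflect the gate of origin.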
row,Sequence,polyreactivity (PSR sort gate)
1,QVQLVETGGGLVQAGGSLRLSCAASGFTFYSYAMGWSRQSPRKEREFVAAGSTYYADSVKGRFTISRDYAKNTVYLQMNSLKPEDTAVYYCAADSYDVSRRYEYEYWVQGTQVTVSS,low polyreactivity
2,QVQLVETGGGLVQAGGSLRLSCAASGGILVGYALGWYRQAPGKERELVAAINYSGGSTNYADSVKGRFTISRDNAKNTVYLQMNSLKPEDTAVYYCAARSTARYGYWGQGTQVTVSS,low polyreactivity
3,QVQLVETGGGLVQAGGSLRLSCAASGIIFATYAMGWYRQAPGKEMELVAAISRRGGYTYYADSVKGRFTISRDNANNTVYLQMNSLKPEDSAVYYCAKSNTLASVAHDYWGQGTQVTVTS,high polyreactivity
4,QVQLVETGGGLVQAGGSLRLSCAASGIIFPFYAMGWYRQAPGKERELVAAITSDGNTNYADSVKGRFTISRDNAKNTVYLQMNSLKPEDTAVYYCNAETQYGVLSWHSTRHDYWGQGTQVTVSS,low polyreactivity
5,QVQLVETGGGLVQAGGSLRLSCAASGITFGRNTMGWYRQAPGKERELVAAIDSGANTYADSVKGRFTISRDNAKNTVYLQMNSLKPEDTAVYYCAVDGGEFSSYGYWGQATQVTVSS,low polyreactivity
6,QVQLVETGGGLVQAGGSLRLSCAASGITFPYYAMGWYRQAPGKERELVDAITIRSGRTYYADSVKGRFTISRDNAKNTFYLQMNSLIPEDTAVYYCAARLSNTYGYWGQGTQVTVSS,high polyreactivity
7,QVQLVETGGGLVQAGGSLRLSCAASGITFYEYALGWYRQAAGKERELVAAISTSGGNTYYAESVKGRFTISRDNAKTTVYLQMNSLKPEDTAVFYCAAQGTASSYSGGDYWGQGTQVTVSS,low polyreactivity
8,QVQLVETGGGLVQAGGSLRLSCAASGNTFHPYAMGWYRQSPGKERELVAAITKSVGSTYYADSVKGRFTLSRDNAKNTVYLQMNSLKPEDTAVFYCARDSLQVFYPYASDDSWGQGTQVTVSS,low polyreactivity
9,QVQLVETGGGLVQAGGSLRLSCAASGRIFGDNAMGWYRQAPGKEREFVATINGSGGSTYYADSVKGRFTISRDNAKNTVYLKMNRLKPEDTAVYYCFVQQNYGYDYWGQGTQVTVSS,low polyreactivity
10,QVQLVETGGGLVQAGGSLRLSCAASGRIFGRYAMGWSRQAPGKERELVASISRGGSTNYADSVKGRFTISRDNAKNTVYLQMNSLKPEDTAVYYCAKSGGVGGADRVGSWGQGTQVTVSS,low polyreactivity
11,QVQLVETGGGLVQAGGSLRLSCAASGRIFGVNARGWYRQAPGKERELVAAIFSGGSTYYADSVKGRFTISRDNAKNTVYVEMNSLKPEDTAVYYCAARFARYDWSMYYWGQGTQVTVSS,low polyreactivity
12,QVQLVETGGGLVQAGGSLRLSCAASGRIFSPYALGWYRQAPGKERELVAAISYDDGITYYADSVKGRFTISRDNAKNTVYLQMNSLKPEDTAVYYCAADSVTRPAGDYWGQGTQVTVSS,low polyreactivity
13,QVQLVETGGGLVQAGGSLRLSCAASGRIFSVYAMGWYRQAPGKERDLVAGITSSGGSTYYADSVKGRFTISRDNAKNTVYLQMISLKPEDTAGYYCATRQVSRLYPYRYNYWGQGTQVTVSS,high polyreactivity
14,QVQLVETGGGLVQAGGSLRLSCAASGRTFAGNAMGWYRQAPGKERELVAGISSGGSTNYADSVKGRFTISRDNAKNTVYLQMNSLNPEDTAVYYCAKRYFRKGYPLFHYAYGYWGQVTQVTVSS,high polyreactivity
15,QVQLVETGGGLVQAGGSLRLSCAASGRTFAKYAMGWYRQAPGKERDLVASISGRGTNTYYADSVKGRFTISRDNAKNTVYLQMNSLKPEDTAVYYCAATYVYPYRDSHYFYWGQGTQVTVSS,high polyreactivity
16,QVQLVETGGGLVQAGGSLRLSCAASGRTFGNYAMGWYRQAPGKERELVAAITSAGRTYYADSVKGRFTISRDNAKNTVYLQMNSLKPEDTAVYYCAVSVIYWSGSQVSVEYYYWGQGTQVTVSS,low polyreactivity

row,Sequence,polyreactivity (PSR sort gate)
1,QVQLVETGGGLVQAGGSLRLSCAASGRTFGPYVMGWYRQAPGKERELVAGITSGGSTNYADSVKGRFTISRDNAKNTVYLQMNSLKPEDTAVYYCNADYVIYFGLYEYWGQGTQVTVSS,low polyreactivity
2,QVQLVETGGGLVQAGGSLRLSCAASGRTFLYYAMGWYRPEPGKERELDAAIRRGSSTYYADSVKGRFTISRDKAKNTVYLQMNSLKPEDTAVYYCAARGRYRIGQGRYGKRYDYWGQGTQVTVSS,high polyreactivity
3,QVQLVETGGGLVQAGGSLRLSCAASGRTFRWYAMGWYRQAPGKERELVADISSVGSTDYADSVKGRFTISRDNAKNTVYLQMNSLKPEDTAVYYCAADFSPRRYHNRSFGYWGQGTQVTVSS,low polyreactivity
4,QVQLVETGGGLVQAGGSLRLSCAASGRTFYFNTMGWYRQAPGKERELVAAISSGVNTYYADSVKGRFTISRDNAKNTVYLQMNSLKPEDTAVYYCAASARTYVQSGYWGQGTQVTVSS,high polyreactivity
5,QVQLVETGGGLVQAGGSLRLSCAASGSIFPGNAMGWYRQAPGKERELVAVIDFSGASTYYADSVKGRFTISRDNAKNTVYLQMNSLKPEDTADYWGQGTQVTVSS,low polyreactivity
6,QVQLVETGGGLVQAGGSLRLSCAASGSIFTYYTMGWYRQAPGKERELVAAINGRGHSTYYADSVKGRFTISRDNAKNTVYLHMNSLKPEDTAVYYCARRRQYEYNYWGQGTQVTVSS,high polyreactivity
7,QVQLVETGGGLVQAGGSLRLSCAASGSIFVYYAMRWYRQAPGKERELVAAITIGASTDYADSVKGRFTISRDNAKNTVYLQMISVKPEDTAVYNCAADLYYGDYRTLPKADEYDYWGQGTQVTVSS,low polyreactivity
8,QVQLVETGGGLVQAGGSLRLSCAASGSIFWYYAMGWYRQAPGKERELVAAISAYGSSTYYADSVKGRFTISRDNAKNTVYLQMNSLKPEDTAVYYCAATYILYNDWLYHYFPEEYDYWGQGTQVTVSS,low polyreactivity
9,QVQLVETGGGLVQAGGSLRLSCAASGSTFESNTMGWYRQAPGKERELVAAISYSGGRTYYADSVKGRFTISRDNAKNTVYLQMNSLKPEDTAVYYCAARWSVSYQYWGQGSQVTVSS,high polyreactivity
10,QVQLVETGGGLVQAGGSLRLSCAASGSTFPRYAMVWSRQAPGKESEYVAVNWSGGSTYYADSVKGRFTISRDNAKNTVYLQMNSLKPEDTAVYYCAAEYHTLSKYSGYATHDYWGQGTQVTVSS,low polyreactivity
11,QVQLVETGGGLVQAGGSLRLSCAASGSTFSRYPMGWYRQAPGKEWELVAAITGTGGRTYYADSVKGRFTISRDNEKNTVYLLMNSLKPEDTAVYYCAAQRWTVKYNYWGQGTQVTVSS,high polyreactivity
12,QVQLVETGGGLVQAGGSLRLSCAASGSTFVRYTMGWYRQAPGKERELVAAISQRDSRTYYADSVKGRFTISRDNAKNTVYLQMNSLKPEDTAVYYCAARSWWYRSATYNYWGQGTQVTVSS,high polyreactivity
13,QVQLVETGGGLVQAGGSLRLSCAASGYIFGYVMGWYRQAPGKERELVAAITYSSGNTYYADSVKGRFTISRDNAKNTVYLQMNSLKPEDTAVYYCAKQAYYKGRLAYGYWGQGTQVTVSS,high polyreactivity
14,QVQLVETGGGLVQAGGSLRLSCAASGYTFDGYAMGWYRQAPGKERELVAAINSGGGTYYADSVKGRFTISRDNAKNTVYLLMNSQKPEDTAVYYCAAERVYSDMDYWGQGTQVTVSS,low polyreactivity
15,QVQLVETGGGLVQAGGSLRLSCAASVRIFFVYAMGWYRQAPGKERELVAAITYDDGDTFYADSVKGRFTISRDNAKNTVYLQMNSLKPEDTAVYYCAAEGYSYIQSDLDYWGQGTQVTVSS,high polyreactivity
16,QVQLVETGGGLVQAGGSLRLSCAAYGFTFEYNAMGWYRQAPGKERELVAAITTTGSTYYADSVKGRFTISRDNAKNTVYLQMNSLKPEDTAVYYCAADPVWRGYSYQFDYWGQGTQVTVSS,low polyreactivity
